Legend:
[1] = biological target: the molecule itself; experiment: single-molecule fluorescence intensity counting (TIRF); single molecules immobilised on coverslips in MRB80 buffer; intensity compared with purified GFP (monomers) and GFP-EB3 (dimers)
[2] = biological target: the molecule itself; experiment: SEC-MALS; 20°C, Superdex S75 or S200 10/30, 20 mM HEPES pH 7.5, 150 mM NaCl, 2 mM DTT; about 7 mg/ml loaded; proteins alone and equimolar (also 2:1, 3:1) mixtures
[3] = biological target: T1, CPAP-CC1 (residues 89-196) (human, UniProt Q9HC77 89-196); experiment: cross-linking; zero-length cross-linker DMTMM (60 mM, 6 min, 25°C) followed by mass spectrometry (xQuest); settings: both partners purified
T1 construct: CPAP (CENPJ), human, residues 89-196 (coiled-coil domain CC1); Cleaved with HRV 3C (PreScission site); also called CPAP 89-196; source: E. coli BL21(DE3), purified (Ni-NTA, tag cleavage, SEC); not shown: thioredoxin, N-terminal, cleaved; His6, N-terminal, cleaved
T1 sequence (looked up): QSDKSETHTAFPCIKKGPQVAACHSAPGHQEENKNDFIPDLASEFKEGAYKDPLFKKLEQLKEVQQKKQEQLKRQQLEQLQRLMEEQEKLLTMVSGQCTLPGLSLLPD

B1: CEP97^CP110-GFP-SII (chimera of CEP97 1-650 and CP110 581-991) (other, human, UniProt Q8IW35 1-650, looked up)
chain: MAVARVDAALPPGEGSVVNWSGQGLQKLGPNLPCEADIHTLILDKNQIIKLENLEKCKRLIQLSVANNRLVRMMGVAKLTLLRVLNLPHNSIGCVEGLKELVHLEWLNLAGNNLKAMEQINSCTALQHLDLSDNNISQIGDLSKLVSLKTLLLHGNIITSLRMAPAYLPRSLAILSLAENEIRDLNEISFLASLTELEQLSIMNNPCVMATPSIPGFDYRPYIVSWCLNLRVLDGYVISQKESLKAEWLYSQGKGRAYRPGQHIQLVQYLATVCPLTSTLGLQTAEDAKLEKILSKQRFHQRQLMNQSQNEELSPLVPVETRASLIPEHSSPVQDCQISQESEPVIQVNSWVGINSNDDQLFAVKNNFPASVHTTRYSRNDLHLEDIQTDEDKLNCSLLSSESTFMPVASGLSPLSPTVELRLQGINLGLEDDGVADESVKGLESQVLDKEEEQPLWAANENSVQMMRSEINTEVNEKAGLLPCPEPTIISAILKDDNHSLTFFPESTEQKQSDIKKPENTQPENKETISQATSEKLPMILTQRSVALGQDKVALQKLNDAATKLQACWRGFYARNYNPQAKDVRYEIRLRRMQEHIVCLTDEIRRLRKERDEERIKKFVQEEAFRFLWNQVRSLQVWQQTVDQRLSSWHFEKVKRRLDLDIDGLQKENCPYVITSGITEQERQHLPEKRYPKGSGFVNKNKMLGTSSKESEELLKSKMLAFEEMRKRLEEQHAQQLSLLIAEQEREQERLQKEIEEQEKMLKEKKAMTAEASELDINNAVELEWRKISDSSLLETMLSQADSLHTSNSNSSGFTNSAMQYSFVSANEAPFYLWGSSTSGLTKLSVTRPFGRAKTRWSQVFSLEIQAKFNKITAVAKGFLTRRLMQTDKLKQLRQTVKDTMEFIRSFQSEAPLKRGIVSAQDASLQERVLAQLRAALYGIHDIFFVMDAAERMSILHHDREVRKEKMLRQMDKMKSPRVALSAATQKSLDRKKYMKAAEMGMPNKKFLVKQNPSETRVLQPNQGQNAPVHRLLSRQGSICRKNPKKAAKCCDNLRRQHSLG
notes: CEP97, human, N-terminal amino acids 1-650; A dimer by single-molecule fluorescence intensity; No linker between the two parts is told. pTT5 based vector (Addgene #52355 is the vector); also called CEP97-CP110 chimera; CP110-CEP97 fusion
[1]
  stoichiometry N: 2

B2: CP110-CC2 (residues 635-717) (domain or fragment, human, UniProt O43303-2 635-717, looked up)
chain: GTSSKESEELLKSKMLAFEEMRKRLEEQHAQQLSLLIAEQEREQERLQKEIEEQEKMLKEKKAMTAEASELDINNAVELEWRK
notes: CP110, human, residues 635-717 (coiled-coil domain CC2); Homodimer alone by SEC-MALS; one chain of it stands in the heterodimer with CPAP-CC1; source: E. coli BL21(DE3), purified (Ni-NTA, tag cleavage, SEC); not shown: thioredoxin, N-terminal, cleaved; His6, N-terminal, cleaved
[2]
  stoichiometry N: 2
[3]
  binding result: binds
